B1: ATP synthase subunit 9, mitochondrial (Neurospora crassa (strain ATCC 24698 / 74-OR23-1A / CBS 708.71 / DSM 1257 / FGSC 987)), P00842 (parent)
chain: MASTRVLASRLASQMAASAKVARPAVRVAQVSKRTIQTGSPLQTLKRTQMTSIVNATTRQAFQKRAYSSEIAQAMVEVSKNLGMGSAAIGLTGAGIGIGLVFAALLNGVARNPALRGQLFSYAILGFAFVEAIGLFDLMVALMAKFT
partner: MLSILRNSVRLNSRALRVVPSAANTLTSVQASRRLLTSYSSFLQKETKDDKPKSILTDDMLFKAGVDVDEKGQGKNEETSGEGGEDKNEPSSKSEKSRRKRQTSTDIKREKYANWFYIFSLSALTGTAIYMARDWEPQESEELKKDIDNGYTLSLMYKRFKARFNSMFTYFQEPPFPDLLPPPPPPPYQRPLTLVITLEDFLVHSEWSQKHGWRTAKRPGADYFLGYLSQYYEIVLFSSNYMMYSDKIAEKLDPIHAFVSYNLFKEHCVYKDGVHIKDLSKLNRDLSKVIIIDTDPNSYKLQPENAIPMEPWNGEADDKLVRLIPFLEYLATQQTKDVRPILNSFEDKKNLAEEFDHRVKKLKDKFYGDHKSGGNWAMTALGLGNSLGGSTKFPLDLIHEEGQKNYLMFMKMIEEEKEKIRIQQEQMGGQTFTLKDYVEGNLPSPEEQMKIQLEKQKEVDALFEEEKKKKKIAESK
B2: Mitochondrial import inner membrane translocase subunit TIM50 (Saccharomyces cerevisiae), Q02776 (parent)
chain: B1 partner

Variants of B1 are the subject of the first experiment. To be noted: with tim50_yeast TIM50, Q02776.
With L7Q;A12Q;A16Q;A17Q, the “effect of a mutation on the interaction” value was “disrupting interaction”.

The variants in another experiment derive from B2. Particulars: with atp9_neucr oli.
As to MLSILRNSVRLNSRALRVVPSAANTLTSVQASRRLLTSYSSFLQKETKDDKPKSILTDDMLFKAGVDVDEKGQGKNEETSGEGGEDKNEPSSKSEKSRRKRQTSTDIKREKYANWFYIFSLSALTGTAIYMARDWEPQESEELKKDIDNGYTLSLMYKRFKARFNSMFTYFQEPPFPDLLPPPPPPPYQRPLTLVITLEDFLVHSEWSQKHGWRTAKRPGADYFLGYLSQYYEIVLFSSNYMMYSDKIAEKLDPIHAFVSYNLFKEHCVYKDGVHIKDLSKLNRDLSKVIIIDTDPNSYKLQPENAIPMEPWNGEADDKLVRLIPFLEYLATQQTKDVRPILNSFEDKKNLAEEFDHRVKKLKDKFYGDHKSGGNWAMTALGLGNSLGGSTKFPLDLIHEEGQKNYLMFMKMIEAEKEKIRIQQEQMGGQTFTLKDYVEGNLPSPEEQMKIQLEKQKEVDALFEEEKKKKKIAESK [E415A], the “effect of a mutation on the interaction” value is listed as “decreasing interaction”.

Variants of B2 are the subject of a further experiment. To be noted: with atp9_neucr oli. This is another data set of the same source.
Consider MLSILRNSVRLNSRALRVVPSAANTLTSVQASRRLLTSYSSFLQKETKDDKPKSILTDDMLFKAGVDVDEKGQGKNEETSGEGGEDKNEPSSKSEKSRRKRQTSTDIKREKYANWFYIFSLSALTGTAIYMARDWEPQESEELKKDIDNGYTLSLMYKRFKARFNSMFTYFQEPPFPDLLPPPPPPPYQRPLTLVITLEDFLVHSEWSQKHGWRTAKRPGADYFLGYLSQYYEIVLFSSNYMMYSDKIAEKLDPIHAFVSYNLFKEHCVYKDGVHIKDLSKLNRDLSKVIIIDTDPNSYKLQPENAIPMEPWNGEADDKLVRLIPFLEYLATQQTKDVRPILNSFEDKKNLAEEFDHRVKKLKDKFYGDHKSGGNWAMTALGLGNSLGGSTKFPLDLIHEEGQKNYLMFMKMAEEEKEKIRIQQEQMGGQTFTLKAYVEGNLPSPEEQMKIQLEKQKEVDALFEEEKKKKKIAESK [I413A;D436A], for which the “effect of a mutation on the interaction” value is listed as “disrupting interaction”.

Variants of B2 are the subject of the next experiment. To be noted: with atp9_neucr oli. This is another data set of the same source.
Regarding MLSILRNSVRLNSRALRVVPSAANTLTSVQASRRLLTSYSSFLQKETKDDKPKSILTDDMLFKAGVDVDEKGQGKNEETSGEGGEDKNEPSSKSEKSRRKRQTSTDIKREKYANWFYIFSLSALTGTAIYMARDWEPQESEELKKDIDNGYTLSLMYKRFKARFNSMFTYFQEPPFPDLLPPPPPPPYQRPLTLVITLEDFLVHSEWSQKHGWRTAKRPGADYFLGYLSQYYEIVLFSSNYMMYSDKIAEKLDPIHAFVSYNLFKEHCVYKDGVHIKDLSKLNRDLSKVIIIDTDPNSYKLQPENAIPMEPWNGEADDKLVRLIPFLEYLATQQTKDVRPILNSFEDKKNLAEEFDHRVKKLKDKFYGDHKSGGNWAMTALGLGNSLGGSTKFPLDLIHEEGQKNYLMFMKMIEEEKEKIRIQQEQMGGQTFTNKDYVEGNLPSPEEQMKIQLEKQKEVDALFEEEKKKKKIAESK [L434N], the “effect of a mutation on the interaction” value is on record as “decreasing interaction”.

The next experiment covers variants of B2. To be noted: with atp9_neucr oli. The source holds these as a separate data set.
Consider MLSILRNSVRLNSRALRVVPSAANTLTSVQASRRLLTSYSSFLQKETKDDKPKSILTDDMLFKAGVDVDEKGQGKNEETSGEGGEDKNEPSSKSEKSRRKRQTSTDIKREKYANWFYIFSLSALTGTAIYMARDWEPQESEELKKDIDNGYTLSLMYKRFKARFNSMFTYFQEPPFPDLLPPPPPPPYQRPLTLVITLEDFLVHSEWSQKHGWRTAKRPGADYFLGYLSQYYEIVLFSSNYMMYSDKIAEKLDPIHAFVSYNLFKEHCVYKDGVHIKDLSKLNRDLSKVIIIDTDPNSYKLQPENAIPMEPWNGEADDKLVRLIPFLEYLATQQTKDVRPILNSFEDKKNLAEEFDHRVKKLKDKFYGDHKSGGNWAMTALGLGNSLGGSTKFPLDLIHEEGQKNYLMFMKMIAEEKEKIRIQQEQMGGQTFTLKDYVEGNLPSPEEQMKIQLEKQKEVDALFEEEKKKKKIAESK [E414A], for which the “effect of a mutation on the interaction” value is reported as “decreasing interaction”.

These data come from IntAct's records for PubMed 24462684.
